Each block holds one binder with its values, some of them ahead of it. Where no end group is shown, it is not given here. [ ]: non-standard residue; d: D form. The star is where a group is joined. 5FAM = O=C1OC2(c3ccc(O)cc3Oc3cc(O)ccc32)c2ccc(C(=O)*)cc21; Lys(Me3) = C[N+](C)(C)CCCC[C@H](N)C(=O)O
Legend:
[1] = biological target: T1, Chromodomain Y-like protein 2 chromodomain; assay: fluorescence polarisation; protein serially diluted with 10 nM FAM peptide; 25 mM HEPES pH 7.5, 100 mM NaCl, 0.05% NP-40; anisotropy fitted by specific binding with Hill slope; settings: both partners purified
T1 construct: Chromodomain Y-like protein 2 (CDYL2), chromodomain; also called CDYL2 chromo; source: E. coli BL21, purified (glutathione resin); not shown: GST, N-terminal, kept
T1 sequence (Q8N8U2 whole entry, species assumed, looked up): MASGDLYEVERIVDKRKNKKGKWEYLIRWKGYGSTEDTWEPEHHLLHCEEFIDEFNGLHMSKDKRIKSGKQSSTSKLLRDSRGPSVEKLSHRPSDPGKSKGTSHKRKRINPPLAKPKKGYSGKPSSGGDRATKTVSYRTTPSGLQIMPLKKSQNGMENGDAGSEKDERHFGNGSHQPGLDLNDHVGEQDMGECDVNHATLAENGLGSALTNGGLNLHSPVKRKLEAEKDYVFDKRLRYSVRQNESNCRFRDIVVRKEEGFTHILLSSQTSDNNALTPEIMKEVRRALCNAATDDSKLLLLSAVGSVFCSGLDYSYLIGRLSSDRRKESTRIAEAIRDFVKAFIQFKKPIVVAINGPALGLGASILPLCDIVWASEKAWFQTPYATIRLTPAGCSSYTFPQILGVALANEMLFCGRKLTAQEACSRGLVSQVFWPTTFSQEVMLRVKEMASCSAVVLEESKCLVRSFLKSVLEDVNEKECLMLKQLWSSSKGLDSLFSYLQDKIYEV

[2] = biological target: T2, M Phase Phosphoprotein 8 chromodomain (UniProt Q99549 55-116); assay: as above; settings: both partners purified
T2 construct: M-phase phosphoprotein 8 (MPP8), chromodomain; also called MPP8 chromo; MPP8; source: E. coli BL21, purified (glutathione resin); not shown: GST, N-terminal, kept
T2 sequence: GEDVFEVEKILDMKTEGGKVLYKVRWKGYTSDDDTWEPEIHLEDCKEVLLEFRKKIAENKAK

- Kd [1]: 0.1 ± 0.0066 µM
B1: FAM-WAY(Kme3)TGK peptide (peptide)
chain: 5FAM-WAY[Lys(Me3)]TGK
modifications: also: flanking glycines, number not given here

- Kd [2]: 6 µM
B2: FAM-WSK(Kme3)RRR peptide (peptide)
chain: 5FAM-WSK[Lys(Me3)]RRR
modifications: also: flanking glycines, number not given here

Source: paper PMC7160673, “A Degenerate Peptide Library Approach to Reveal Sequence Determinants of Methyllysine-Driven Protein Interactions” (Frontiers in Cell and Developmental Biology, 2020)
